Target: T1, RIFIN PF3D7_1400600 (Plasmodium falciparum)
T1 construct: A-type RIFIN; on transfected CHO cells, and native from 3D7-MGD21^+ IEs in the immunoprecipitation
T1 chain: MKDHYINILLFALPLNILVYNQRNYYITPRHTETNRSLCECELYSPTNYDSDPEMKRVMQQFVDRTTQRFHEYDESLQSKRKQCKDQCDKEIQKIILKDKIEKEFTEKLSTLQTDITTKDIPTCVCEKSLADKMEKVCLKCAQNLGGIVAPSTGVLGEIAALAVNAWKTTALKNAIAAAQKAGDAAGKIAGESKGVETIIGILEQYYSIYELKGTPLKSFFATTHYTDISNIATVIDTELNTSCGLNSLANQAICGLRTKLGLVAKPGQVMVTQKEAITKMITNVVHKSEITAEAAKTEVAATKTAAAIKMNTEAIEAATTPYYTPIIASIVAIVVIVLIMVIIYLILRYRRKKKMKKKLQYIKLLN
Assay: immunoprecipitation and LC-MS

B1: MGD21 (antibody)
VH: EVQLVETGPGLMKTSGTLSLTCAVSGDYVNTNRRWSWVRQAPGKGLEWIGEVHQSGRTNYNPSLKSRVTISVDKSKNQFSLKVDSVTAADTAVYYCARASPLKSQRDTDLPRPSISAEPGTVIPLGSHVTFVCRGPVGVQTFRLERERNYLYSDTEDVSQTSPSESEARFRIDSVNAGNAGLFRCIYYKSRKWSEQSDYLELVVKGEDVTWALSQSQDDPRACPQGELPISTDIYYVDVWGNGTTVTVSS
VL: AIRMTQSPSSLSASPGDKVSITCRASQHINDSLAWFQQRPGKAPKLLIYGASNLHSGVPSRFSGTGSGTDFTLTITGLQSEDFATYFCQQCNCFPPDFGQGTRLEIK
notes: Donor D; LAIR-1 insert in CDRH3; variable regions only; also called MGD21 ANTIBODY; mAb MGD21
With B1 the “log2 fold change (MGD21 immunoprecipitates of 3D7-MGD21^+ against 3D7-MGD21^- IEs)” value was 2 log2 fold.
